From the supplement of paper PMC7877785
± gives the uncertainty stated by the source.

Experiment: self-splicing fitness, log relative to wild type (ln ratio); higher = more splicing; Tetrahymena group I intron in knt gene, E. coli kanamycin selection, DiMSum; sequences stand for … in CUCUCU…GGAGGGAAAAGUUAUCAGGCAUGCACCUGGUAGCUAGUCUUUAAACCAAUAGAUUGCAUCGGUUUAAAAGGCAAGACCGUCAAAUUGCGGGAAAGGGGUCAACAGCCGUUCAGUACCAAGUCUCAGGGGAAACUUUGAGAUGGCCUUGCAAAGGGUAUGGUAAUAAGCUGACGGACAUGGUCCUAACCACGCAGCCAAGUCCUAAGUCAACAGAUCUUCUGUUGAUAUGGAUGCAGUUCACAGACUAAAUGUCGGUCGGGGAAGAUGUAUUCUUCUCAUAAGAUAUAGUCGGACCUCUCCUUAAUGGGAGCUAGCGGAUGAAGUGAUGCAACACUGGAGCCGCUGGGAACUAAUUUGUAUGCGAAAGUAUAUUGAUUAGUUUUGGAGUACUCGUGGUCG
How it was run: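 A randomised library covering all eight P1ex-region intron nucleotides was built with the intron in the knt kanamycin-resistance gene on pET-22b(+) and held in E. coli BL21(DE3). Cells were grown overnight at 37°C or 30°C on LB agar, with or without 25 μg/mL kanamycin, plus 100 μg/mL carbenicillin, 50 μM IPTG and 0.2% rhamnose, and pooled colonies were amplicon-sequenced on an Illumina HiSeq 2500. DiMSum fitness is the error-weighted combination of wild-type-normalised replicate fold changes, kanamycin versus none.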

Sequence | self-splicing fitness (ln) (30 °C) | self-splicing fitness (ln) (37 °C)
UGAGAGCAAUAUUACGCCUG | -2.46 ± 0.21 | -1.91 ± 0.32
UGAGAGCAAUAUUACGCGCG | -2.15 ± 0.2 | -1.23 ± 0.24
UGAGAGCAAUAUUACGCGGC | -3.04 ± 0.46 | -1.58 ± 0.44
UGAGAGCAAUAUUACGCUAG | -3.66 ± 0.47 | 
UGAGAGCAAUAUUACGCUAU | -3.09 ± 0.35 | -1.48 ± 0.46
UGAGAGCAAUAUUACGGCCG | -3.57 ± 0.43 | -1.38 ± 0.25
UGAGAGCAAUAUUACGGCGG | -3.73 ± 0.35 | -1.9 ± 0.3
UGAGAGCAAUAUUACGGUAA | -4.27 ± 0.25 | -2.27 ± 0.23
UGAGAGCAAUAUUACGGUAC |  | -2 ± 0.38
UGAGAGCAAUAUUACGGUAU | -3.07 ± 0.2 | -1.53 ± 0.3
UGAGAGCAAUAUUACGUACA | -2.02 ± 0.21 | -0.955 ± 0.26
UGAGAGCAAUAUUACGUCUA | -1.4 ± 0.11 | -0.679 ± 0.12
UGAUAGCAAUAUUACGAAUG | -1.19 ± 0.12 | -1.14 ± 0.16
UGAUAGCAAUAUUACGACCG | 0.139 ± 0.13 | 0.451 ± 0.17
UGAUAGCAAUAUUACGACCU | -1.09 ± 0.17 | -0.0258 ± 0.18
UGAUAGCAAUAUUACGAGAC |  | -2.59 ± 0.34
UGAUAGCAAUAUUACGAGUA | -1.71 ± 0.16 | -1.23 ± 0.13
UGAUAGCAAUAUUACGAUCG | -0.236 ± 0.14 | -0.942 ± 0.15
UGAUAGCAAUAUUACGAUUA | -0.749 ± 0.11 | -0.000856 ± 0.1
UGAUAGCAAUAUUACGCCCA | 0.955 ± 0.13 | -0.0259 ± 0.17
UGAUAGCAAUAUUACGCGCG | -0.57 ± 0.086 | -0.283 ± 0.12
UGAUAGCAAUAUUACGCGGU | -3.34 ± 0.27 | -1.99 ± 0.22
UGAUAGCAAUAUUACGCUGA | -1.79 ± 0.2 | -0.53 ± 0.12
UGAUAGCAAUAUUACGGCAU | -2.68 ± 0.13 | -1.41 ± 0.13
UGAUAGCAAUAUUACGGCGG | -0.138 ± 0.095 | -0.142 ± 0.13

Sequence | self-splicing fitness (ln) (30 °C) | self-splicing fitness (ln) (37 °C)
UGAUAGCAAUAUUACGGUGC | -2.98 ± 0.35 | 
UGAUAGCAAUAUUACGUAGG | -1.66 ± 0.16 | -0.583 ± 0.16
UGAUAGCAAUAUUACGUAUC | -2.67 ± 0.48 | 
UGAUAGCAAUAUUACGUCGA | -1.69 ± 0.11 | -0.847 ± 0.1
UGAUAGCAAUAUUACGUCUG | -0.116 ± 0.085 | 0.318 ± 0.1
UGAUAGCAAUAUUACGUGUG | -1.45 ± 0.1 | -0.804 ± 0.098
UGAUAGCAAUAUUACGUUUC | -2.72 ± 0.22 | -2.29 ± 0.41
UGCAAGCAAUAUUACGAAUG | -1.35 ± 0.085 | -0.724 ± 0.12
UGCAAGCAAUAUUACGACUG | 0.127 ± 0.065 | 0.37 ± 0.087
UGCAAGCAAUAUUACGAUGG | -1.25 ± 0.1 | -0.29 ± 0.12
UGCAAGCAAUAUUACGCAAA | -2.5 ± 0.17 | -2 ± 0.15
UGCAAGCAAUAUUACGCAUC | -1.87 ± 0.45 | -1.52 ± 0.45
UGCAAGCAAUAUUACGCUAG | -2.55 ± 0.27 | -2.42 ± 0.33
UGCAAGCAAUAUUACGCUCG | -3.78 ± 0.27 | -1.83 ± 0.2
UGCAAGCAAUAUUACGGAAC |  | -0.851 ± 0.25
UGCAAGCAAUAUUACGGGAG | -2.41 ± 0.096 | -1.71 ± 0.098
UGCAAGCAAUAUUACGGUAU | -3.81 ± 0.21 | -1.15 ± 0.14
UGCAAGCAAUAUUACGGUUA | 0.147 ± 0.075 | 0.11 ± 0.078
UGCAAGCAAUAUUACGUAUA | -2.49 ± 0.18 | -0.379 ± 0.12
UGCAAGCAAUAUUACGUCCG | 0.463 ± 0.1 | 0.55 ± 0.12
UGCAAGCAAUAUUACGUGGA | -2.88 ± 0.17 | -1.36 ± 0.11
UGCAAGCAAUAUUACGUGGU | -4.13 ± 0.17 | -2.84 ± 0.16
UGCAAGCAAUAUUACGUUCA | 0.123 ± 0.06 | 0.454 ± 0.088
UGCAAGCAAUAUUACGUUCU | -0.995 ± 0.069 | -0.423 ± 0.084
